Results: article PMC9976904, “eIF4A1-dependent mRNAs employ purine-rich 5’UTR sequences to activate localised eIF4A1-unwinding through eIF4A1-multimerisation to facilitate translation”

Molecular target: eIF4A1 DQAD (human, UniProt P60842 1-406, E183Q)
Test: EMSA; silvestrol; affinity similar to wt; 20 mM HEPES/KOH pH 7.5, 100 mM KCl, 1 mM TCEP, 1% DMSO, 2 mM AMPPNP/MgCl2, 25 C, 60 min; EMSA gels 6-7% acrylamide-TB, 0.5x TB
Conditions: protein: recombinant; tags: N-terminal 6xHis-SUMO, cleaved; label: FAM or 5' Dy780

Sequence of eIF4A1 DQAD (P60842 whole entry E183Q): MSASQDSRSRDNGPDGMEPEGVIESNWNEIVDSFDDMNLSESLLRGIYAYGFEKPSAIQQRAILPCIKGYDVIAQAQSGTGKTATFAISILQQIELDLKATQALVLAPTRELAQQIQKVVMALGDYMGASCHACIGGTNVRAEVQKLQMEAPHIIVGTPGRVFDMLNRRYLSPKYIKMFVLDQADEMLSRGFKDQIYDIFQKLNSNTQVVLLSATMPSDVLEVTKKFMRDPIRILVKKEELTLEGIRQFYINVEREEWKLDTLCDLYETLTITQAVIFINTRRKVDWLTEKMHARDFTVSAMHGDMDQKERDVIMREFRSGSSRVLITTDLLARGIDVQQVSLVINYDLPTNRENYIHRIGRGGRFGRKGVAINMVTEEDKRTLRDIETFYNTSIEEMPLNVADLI

B1: AG-RNA (20 nt) (ssRNA)
RNA: AGAGAGAGAGAGAGAGAGAG
Question: Does B1 bind?
Answer: Result: binds
